Measurements: the RNAGym collection of RNA variant scans (doi:10.7554/elife.80360)

B1: HDV Ribozyme (parent)
chain: GGCCGGCAUGGUCCCAGCCUCCUCGCUGGCGCCGGCUGGGCAACAUUCCGAGGGGACCGUCCCCUCGGUAAUGGCGAAUGGGACCCA

Variants of: B1
Test: self-cleavage, relative activity (ratio to wild type); higher = more cleavage; co-transcriptional

Variant	self-cleavage
G2A A78C	0.0432
G2A A78G	0.0504
G1A G17C	0.107
G1U A87U	0.507
G2C U37A	0.0583
G1C G40C	0.0475
G2A U69A	0.22
G1U U79G	0.539
G2A C36A	0.228
G1U G5A	0.445
G1C G73U	0.0426
G2C C61U	0.137
G2C C61G	0.0647
G1C U12A	0
G1C U12G	0.145
G2C U20C	0.0536
G1C C13U	0.125
G2A C66U	0.192
G2A C58A	0.234
G2A C58U	0.113
G1C G74U	0.133
G2A C86G	0.0755
G1U C22U	0.356
G1U C22G	0.214

Variant	self-cleavage
G1A C21G	0.0489
G1A C66A	0.26
G1C G34A	0.0405
G1C G38U	0.0396
G1C G38C	0
G1U U47A	0.295
G2C U60G	0.0326
G2C U60A	0.0779
G2C G25U	0.0702
G1A C24G	0.0702
G2C G80A	0.0573
G1A G29A	0.0615
G1A C33A	0.0554
G1A C33G	0.148
G2A U46C	0.109
G1C C44U	0.0615
G1C C44G	0.0692
G1C C44A	0.353
G1C C49A	0.237
G1U G73A	0.237
G1A G54A	0.172
G1A G54C	0.364
G1A G54U	0.0475
G2C C49G	0.145

Variant	self-cleavage
G2A C30G	0.0432
G2A C30A	0.0152
G2A C30U	0.0639
G2A C26A	0.216
G2A C26G	0.166
G2A C24G	0.0378
G1C U23G	0.227
G1C U23C	0.0831
G2C C66A	0.0913
G1C G31U	0.0791
G1C U79G	0.0723
G1U C41G	0.249
G1U C41U	0.228
G1A G52U	0.162
G1A G52C	0.237
G2A C62U	0.0886
G2A G53A	0.168
G2A G53C	0.348
G1U C61G	0.326
G1U C61A	0.326
G1U G25C	0.17
G1U G25A	0.354
G2C C63G	0.0314
G2C C63U	0

Variant	self-cleavage
G1C C84G	0
G2A G5U	0.0453
G1A G53A	0.0449
G1C G5A	0.0536
G1U C7A	0.169
G1U C7G	0.332
G2C C62A	0.0462
G2A U9A	0.0773
G2C G73U	0.0683
G1A A78C	0.0627
G1A U12C	0
G1A U12G	0.554
G1A C36U	0.244
G2C A43U	0.0297
G2C A43G	0
G2A C21G	0.0528
G1A G73A	0.128
G2A G39A	0.0171
G2C A8G	0.0554
G1A C49A	0.0923
G1A C49G	0.166
G2A C41A	0.168
G1C C85U	0.266
G1C C85G	0.151

Variant	self-cleavage
G1A G80A	0.0455
G1U A56C	0.494
G2C U27A	0
G2C C13G	0.0504
G2C A83C	0.0302
G2C A83G	0.132
G1U G6A	0.41
G1C A87C	0.156
G2C A45C	0.0528
G2C A45G	0.107
G1U C26U	0.222
G1A C14G	0.0665
G1U G55C	0.455
G2C G59A	0.0193
G1U U20C	0.401
G1A U9G	0.302
G1A U9C	0.369
G1A U9A	0.138
G1U G10C	0.292
G2C G54C	0.0208
G1U G29A	0.336
G1U C86A	0.32
G1C G59C	0.365
G2C C19U	0.0665

Variant	self-cleavage
G1C G2C	1.06
G1U G31A	0.364
G1A A16G	0.302
G1U A51G	0.514
G1U A51C	0.231
G1U C84G	0.297
G1U G54A	0.277
G1U G54C	0.361
G2C G55C	0.0656
G2C G55U	0.0346
G1C U46G	0.119
G1C U46A	0.138
G1A G81C	0.269
G1A G81U	0.0426
G1U G11C	0.288
G1C G81C	0.119
G1C G81A	0
G1C G81U	0.192
G1C U47G	0.128
G2C G5A	0.0563
G1A G6A	0.437
G2A A16U	0.0665
G2A C84U	0.119
G2A C84A	0.0519

Variant	self-cleavage
G1C G10A	0.166
G1C G10C	0.095
G1C U69C	0.158
G1A A87U	0.157
G1A A87C	0.121
G1C C86U	0.262
G2A C33G	0.0378
G1A A51U	0
G2C A71U	0.11
G2C A71C	0.0723
G2C C21A	0
G2C C7A	0.0268
G2C C7G	0.0692
G1C G82A	0.0475
G1C G17C	0
G1C G17U	0.0573
G1C G17A	0.332
G1U G68U	0.287
G1U U65C	0.399
G1U U27C	0.26
G1C G29U	0.142
G1C G29A	0.0536
G2C G67U	0.026
G2C G53U	0.0665

Variant	self-cleavage
G1C G68C	0.0978
G2A C49U	0.237
G1A U27G	0
G2A G73U	0.0443
G1U G40C	0.491
G2A U37A	0.0755
G1C U60A	0.237
G1A C41G	0
G1A A70G	0.214
G1C C58U	0.0923
G1C C22U	0.148
G2C C84U	0.0181
G1C A51U	0.222
G2C G82A	0.0462
G2A G34C	0.0489
G1A U23G	0
G2A U20A	0.0361
G2A U20G	0
G2A G59A	0.208
G2C G28A	0.0475
G2C G28C	0.0475
G1C G11A	0.0652
G1C G11C	0.131
G2C U47G	0.0923

Variant	self-cleavage
G1C C15U	0.0831
G2U A16G	0.0426
G2U A16U	0.0237
G2C G76U	0.0455
G1A U79G	0.0923
G1C A78C	0
G1A G55U	0.309
G2A U27A	0.0997
G2A U27G	0
G1U C13G	0.369
G2A C85A	0.268
G2A C85G	0.217
G1C C30U	0.0755
G1A A8U	0
G1U A71U	0.424
G1U A71G	0.429
G1C C32G	0
G2C C18A	0.0346
G1C A8G	0.123
G1U U46G	0.259
G2U A42G	0.0767
G1U G67C	0.305
G1C C75A	0
G1A G39A	0.141

Variant	self-cleavage
G2C C57G	0.0228
G2C C24A	0.0791
G1A A77C	0.0405
G1A C3G	0.227
G1A C3A	0.0627
G1A C63U	0.147
G1U U60C	0.0811
G1C C64U	0.155
G2C C30U	0.117
G2A C7G	0.017
G2A C7U	0.0852
G1C C24U	0.0489
G2A C22G	0.0191
G2A G11U	0.0328
G2A G11A	0.0786
G1U C32U	0.532
G1U C32G	0.305
G1U A70U	0.381
G1A A83C	0.138
G1C U20C	0.0723
G1C U20G	0
G1A U72G	0.0665
G1A U72A	0.246
G1A U72C	0.107

Variant	self-cleavage
G1A U20C	0
G1A U20A	0.0594
G1C C41G	0
G1A U65G	0
G1C U65C	0.128
G2A G52A	0.143
G2A G52C	0.112
G1C G35C	0
G1C G35A	0.208
G1C G54A	0.131
G1C C4A	0
G1C C36U	0.394
G2C A16C	0.0361
G1U G34C	0.155
G2C C3G	0
G2C G52U	0.032
G2C G52C	0
G1U G76A	0.62
G1A C7A	0.191
G1C C48U	0.227
G2A G38U	0.0373
G2A G10A	0.0256
G2A U47G	0.374
G2A U47C	0.0292

Variant	self-cleavage
G2C U46A	0.0911
G2C U46G	0.0959
G2C U9G	0.0723
G1A C57U	0
G1U C30A	0.426
G1A C58A	0.0978
G1A C86U	0.19
G1A C86A	0.119
G2A G31C	0.0354
G1A U60G	0.302
G1U C48G	0.243
G2C C26U	0.124
G2C A42G	0.13
G2A A83U	0.119
G1A G28U	0.106
G1A G28C	0.219
G2C G40U	0.0409
G2C G40A	0.0773
G1U A78G	0.346
G1U A42U	0.332
G1C G6C	0
G1U G17C	0.341
G2C A78C	0
G1C C18G	0

Variant	self-cleavage
G1U U37G	0.31
G1U U37A	0.584
G1A G11C	0.172
G2A G6A	0.0563
G2A C57U	0.203
G2A A70U	0.228
G1C C7G	0.0875
G2A A43C	0.0665
G2C A77U	0.119
G2C C33A	0.0528
G2A U72A	0.053
G1C G52C	0.256
G2A A8U	0.0432
G2A A8C	0.106
G1C C3U	0.34
G2C U23C	0
G2A C19A	0.0292
G2A U65C	0.117
G2A U65G	0.223
G2A U60C	0.354
G1C A71U	0
G1U C49A	0.502
G1A G50U	0.128
G1A G50C	0.302

Variant	self-cleavage
G2C G39A	0.121
G2C G39C	0
G1C G76A	0.26
G2A G50A	0.0386
G1A G2C	0.0773
G1C U27C	0
G1A C18A	0.113
G1C A43G	0
G1U C14G	0.397
G1U C14A	0.222
G1A C44G	0.138
G1A C44U	0.0898
G1C G28C	0
G1C A16G	0.196
G1A G74A	0.0287
G1A G25C	0
G2A C63G	0.0804
G2A C63U	0.162
G1U C58G	0.318
G1C G80C	0.0475
G2C G11U	0.0519
G2A C44U	0.0554
